Data from paper PMC7693240.

What was measured:
[1] = target: H6-Smt3-Int^C(N125A)-CysTag(Alexa647)-Trx-H6; assay: MST

Kd [1] [nM]	Kd (H6-Int^N(C1A)-mCherry) [nM]	koff (H6-Int^N(C1A)-mCherry) [s⁻¹]	kon (H6-Int^N(C1A)-mCherry) [M⁻¹ s⁻¹]	Substance
22.4	–	–	–	MBP-Int^N(C1A)-H6 (domain or fragment)
–	9.2	0.00082	85000	SBP-Int^C(N125A)-eGFP (domain or fragment)
